Test results as given in PMC9458460, “Structural basis of 3′-end poly(A) RNA recognition by LARP1”.

Legend:
LARP1 LaM [1] = target: T1, LARP1 LaM (UniProt Q6PKG0-3 323-410); assay: ITC; 10 mM MES pH 6.3, 100 mM NaCl, 1 mM TCEP (HPLC and NMR buffer; ITC buffer not stated separately); ITC 293 K, NMR 25 C
LARP1 LaM [2] = target: T1, LARP1 LaM; assay: as above; remark: listed apart in the source
LARP1 LaM R345A = LARP1 LaM R345A (UniProt Q6PKG0-3 323-410, R345A); assay: as above
LARP1 LaM Q333A = LARP1 LaM Q333A (UniProt Q6PKG0-3 323-410, Q333A); assay: as above
LARP1 LaM Q333A/F348A = LARP1 LaM Q333A/F348A (UniProt Q6PKG0-3 323-410, Q333A;F348A); assay: as above
LARP1 LaM Y336A/F348A = LARP1 LaM Y336A/F348A (UniProt Q6PKG0-3 323-410, Y336A;F348A); assay: as above
LARP1 LaM [3] = target: T1, LARP1 LaM; assay: crystal structure; 1.15 A; 10 mM MES pH 6.3, 100 mM NaCl, 1 mM TCEP (HPLC and NMR buffer; ITC buffer not stated separately); ITC 293 K, NMR 25 C
LARP1 LaM-RRM region = LARP1 LaM-RRM region (UniProt Q6PKG0-3 323-509); assay: ITC; 10 mM MES pH 6.3, 100 mM NaCl, 1 mM TCEP (HPLC and NMR buffer; ITC buffer not stated separately); ITC 293 K, NMR 25 C; conditions: protein: recombinant
[4] = target: LARP1 323-509 Q333A/F348A (UniProt Q6PKG0-3 323-509, Q333A;F348A); assay: as above; conditions: protein: recombinant
[5] = target: LARP1 323-509 Y336A/F348A (UniProt Q6PKG0-3 323-509, Y336A;F348A); assay: as above; conditions: protein: recombinant

AAACAA (ssRNA) [A3CA2]
binding result (LARP1 LaM [1]): binds

AAAACA (ssRNA) [A4CA]
binding signal (LARP1 LaM [2]): ~10 fold weaker than A6

AAAUAA (ssRNA) [A3UA2]
binding result (LARP1 LaM [1]): binds

ACAAAA (ssRNA) [ACA4]
binding result (LARP1 LaM [1]): binds

GGGGGG (ssRNA) [G6]
binding signal (LARP1 LaM [2]): ~10 fold weaker than A6

AAAAAAAAAAA (ssRNA) [A11]
binding result (LARP1 LaM [1]): binds

AAAA (ssRNA) [A4]
binding signal (LARP1 LaM R345A): ~2 fold weaker than wild type | binding signal (LARP1 LaM Q333A): ~20 fold weaker than wild type | binding result (LARP1 LaM Q333A/F348A): no binding | binding result (LARP1 LaM Y336A/F348A): no binding | binding result (LARP1 LaM [1]): binds

CCCCCC (ssRNA) [C6]
binding signal (LARP1 LaM [2]): > 200 fold weaker than A6

UUUUUU (ssRNA) [U6]
binding signal (LARP1 LaM [2]): ~10 fold weaker than A6

AAAAAA (ssRNA) [A6]
binding result (LARP1 LaM [1]): binds

AACAAA (ssRNA) [A2CA3]
binding result (LARP1 LaM [1]): binds

AAAAAA (ssRNA, 3' phosphate) [A5A(p)]
binding signal (LARP1 LaM [2]): ~200 fold weaker than A6

AAA (ssRNA) [A3]
binding result (LARP1 LaM [3]): binds

AAAAAAAAAAAAAAAAAAAAAAAAA (ssRNA) [A25]
Kd (LARP1 LaM-RRM region): ~200 nM | binding result [4]: no binding | Kd (LARP1 LaM [1]): < 1000 nM | binding result [5]: no binding

AAAAAC (ssRNA) [A5C]
binding signal (LARP1 LaM [2]): ~10 fold weaker than A6
